{
  "source": "paper doi:10.1101/2023.07.07.548075",
  "about": "(bioRxiv, 2023)",
  "proteins": {"B1": {"name": "MBP-Δexon3 NLRP3 + GSGAGG linker (human NLRP3 3-1036, Δ95-134 + linker (GSGAGG)) (natural protein)", "chain": "MASTRCKLARYLEDLEDVDLKKFKMHLEDYPPQKGCIPLPRGQTEKADHVDLATLMIDFNGEEKAWAMAVWIFAAINRRDLYEKAKRDEPKWGSGAGGDYRKKYRKYVRSRFQCIEDRNARLGESVSLNKRYTRLRLIKEHRSQQEREQELLAIGKTKTCESPVSPIKMELLFDPDDEHSEPVHTVVFQGAAGIGKTILARKMMLDWASGTLYQDRFDYLFYIHCREVSLVTQRSLGDLIMSCCPDPNPPIHKIVRKPSRILFLMDGFDELQGAFDEHIGPLCTDWQKAERGDILLSSLIRKKLLPEASLLITTRPVALEKLQHLLDHPRHVEILGFSEAKRKEYFFKYFSDEAQARAAFSLIQENEVLFTMCFIPLVCWIVCTGLKQQMESGKSLAQTSKTTTAVYVFFLSSLLQPRGGSQEHGLCAHLWGLCSLAADGIWNQKILFEESDLRNHGLQKADVSAFLRMNLFQKEVDCEKFYSFIHMTFQEFFAAMYYLLEEEKEGRTNVPGSRLKLPSRDVTVLLENYGKFEKGYLIFVVRFLFGLVNQERTSYLEKKLSCKISQQIRLELLKWIEVKAKAKKLQIQPSQLELFYCLYEMQEEDFVQRAMDYFPKIEINLSTRMDHMVSSFCIENCHRVESLSLGFLHNMPKEEEEEEKEGRHLDMVQCVLPSSSHAACSHGLVNSHLTSSFCRGLFSVLSTSQSLTELDLSDNSLGDPGMRVLCETLQHPGCNIRRLWLGRCGLSHECCFDISLVLSSNQKLVELDLSDNALGDFGIRLLCVGLKHLLCNLKKLWLVSCCLTSACCQDLASVLSTSHSLTRLYVGENALGDSGVAILCEKAKNPQCNLQKLGLVNSGLTSVCCSALSSVLSTNQNLTHLYLRGNTLGDKGIKLLCEGLLHPDCKLQVLELDNCNLTSHCCWDLSTLLTSSQSLRKLSLGNNDLGDLGVMMFCEVLKQQSCLLQNLGLSEMYFNYETKSALETLQEEKPELTVVFEPSW"}},
  "molecular_target": "the molecule itself",
  "assay": "SEC",
  "data": [
    {"protein": "B1", "values": [
      {"measurement": "binding result", "value": "binds"}
    ]}
  ]
}
